± gives the standard error. For some of these results: Variants at the floor of the assay were thinned out.
B1: glmS ribozyme (parent)
chain: AUAAAAGCGCCAGAACUACAGAAAUGUAGUUGACGAGGAGGAGGUUUAUCGAAUUUUCGGCGGAUGCCUCCAAA

Assays:
Settings in all cases: with glucosamine-6-phosphate
glucosamine-6-phosphate [1] = variants of: B1; experiment: kcat; higher = faster cleavage; RNA array
In short: (§1)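 Barcoded ribozyme variants, transcribed in situ by E. coli RNA polymerase on sequenced MiSeq chips, were followed via a hybridised Cy3 probe at 37 °C. Glucosamine-6-phosphate ranged from 40 μM to 10 mM in HEPES/KCl/Mg(OAc)2 buffer. kobs came from decay fits to per-tile medians, and kcat and KM from weighted Michaelis–Menten fits.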

glucosamine-6-phosphate [2] = variants of: B1; experiment: KM; higher = weaker cofactor use; RNA array
In short: as §1

glucosamine-6-phosphate [3] = variants of: B1; experiment: self-cleavage kobs at 640 uM GlcN6P; higher = faster cleavage; RNA array
In short: as §1

glucosamine-6-phosphate [4] = variants of: B1; experiment: self-cleavage kobs at 2500 uM GlcN6P; higher = faster cleavage; RNA array
In short: as §1

glucosamine-6-phosphate [5] = variants of: B1; experiment: self-cleavage kobs at 10000 uM GlcN6P; higher = faster cleavage; RNA array
In short: as §1

glucosamine-6-phosphate [6] = variants of: B1; experiment: self-cleavage kobs at 160 uM GlcN6P; higher = faster cleavage; RNA array
In short: as §1

glucosamine-6-phosphate [7] = variants of: B1; experiment: self-cleavage kobs at 40 uM GlcN6P; higher = faster cleavage; RNA array
In short: as §1

Row | Variant | kcat (glucosamine-6-phosphate [1]) [s⁻¹] | KM (glucosamine-6-phosphate [2]) [µM] | self-cleavage kobs at 640 uM GlcN6P (glucosamine-6-phosphate [3]) [s⁻¹] | self-cleavage kobs at 2500 uM GlcN6P (glucosamine-6-phosphate [4]) [s⁻¹] | self-cleavage kobs at 10000 uM GlcN6P (glucosamine-6-phosphate [5]) [s⁻¹] | self-cleavage kobs at 160 uM GlcN6P (glucosamine-6-phosphate [6]) [s⁻¹] | self-cleavage kobs at 40 uM GlcN6P (glucosamine-6-phosphate [7]) [s⁻¹]
1 | G41A U56G | 0.000193 ± 1.8e-05 | 1740 ± 310 | 5.1e-05 ± 1.4e-05 | 0.000109 ± 3.5e-05 | 0.000169 ± 4.7e-05 | – | –
2 | G41A G66U | 8e-05 ± 4.8e-06 | 2190 ± 390 | 2.19e-05 ± 1e-05 | 4.07e-05 ± 7.8e-06 | 6.65e-05 ± 8.4e-06 | – | –
3 | G41A G66C | 3.76e-05 ± 1.2e-06 | 1410 ± 200 | – | 2.49e-05 ± 1.2e-05 | 3.27e-05 ± 9.4e-06 | – | –
4 | G43A | 9.3e-05 ± 6.9e-06 | 1560 ± 420 | 2.21e-05 ± 1.7e-06 | 6.37e-05 ± 1.8e-06 | 7.88e-05 ± 1.4e-06 | – | –
5 | A42G G44C U56A C70U | < 1e-05 | – | – | < 1e-05 | – | < 1e-05 | –
6 | G41U U69C | 4.52e-05 ± 7.4e-06 | – | – | 3.82e-05 ± 1.3e-05 | – | – | –
7 | A42G A64U | 0.000207 ± 1.6e-05 | 2880 ± 600 | – | 0.000104 ± 2.3e-05 | 0.000158 ± 2.2e-05 | – | –
8 | A42G C58A | 0.00048 ± 3.7e-05 | 2480 ± 390 | 9.53e-05 ± 3.4e-05 | 0.000279 ± 0.00013 | 0.000379 ± 9.4e-05 | – | –
9 | G41C U49G | < 1e-05 | – | – | – | – | < 1e-05 | –
10 | A42C G66U | 1.53e-05 ± 2e-06 | – | – | – | – | – | –
11 | G41A A52G | 8.32e-05 ± 1.6e-05 | – | – | 7.3e-05 ± 1.3e-05 | 6.83e-05 ± 1.3e-05 | – | –
12 | G41A U54C | 0.000448 ± 5.8e-05 | 1810 ± 510 | 0.00013 ± 2.5e-05 | 0.000223 ± 4.7e-05 | 0.0004 ± 5.8e-05 | – | –
13 | G41C U47A | 0.000354 ± 1.6e-05 | 4510 ± 420 | 4.21e-05 ± 1.2e-05 | 0.000134 ± 2.8e-05 | 0.000243 ± 2.7e-05 | – | –
14 | G41U U45C | 0.000379 ± 2.8e-05 | 1140 ± 210 | 0.000157 ± 4e-05 | 0.000273 ± 5.6e-05 | 0.000331 ± 4.7e-05 | 4.06e-05 ± 1.5e-05 | –
15 | G41C C67U C70A | 5.68e-05 ± 1.2e-05 | 9730 ± 3700 | – | – | 2.88e-05 ± 1.3e-05 | – | –
16 | G41U U46C | 8.91e-05 ± 1.3e-06 | 676 ± 50 | 4.34e-05 ± 1.9e-05 | 7.05e-05 ± 1.8e-05 | 8.33e-05 ± 1.3e-05 | – | –
17 | A42C U69G | 0.00638 ± 0.0012 | 129 ± 51 | 0.00686 ± 0.0012 | 0.00742 ± 0.0017 | 0.00624 ± 0.00083 | 0.00249 ± 0.00048 | 0.00174 ± 0.00021

Row | Variant | kcat (glucosamine-6-phosphate [1]) [s⁻¹] | KM (glucosamine-6-phosphate [2]) [µM] | self-cleavage kobs at 640 uM GlcN6P (glucosamine-6-phosphate [3]) [s⁻¹] | self-cleavage kobs at 2500 uM GlcN6P (glucosamine-6-phosphate [4]) [s⁻¹] | self-cleavage kobs at 10000 uM GlcN6P (glucosamine-6-phosphate [5]) [s⁻¹] | self-cleavage kobs at 160 uM GlcN6P (glucosamine-6-phosphate [6]) [s⁻¹] | self-cleavage kobs at 40 uM GlcN6P (glucosamine-6-phosphate [7]) [s⁻¹]
18 | G41U U54G | 0.000782 ± 0.00031 | – | 0.000458 ± 9.3e-05 | 0.00134 ± 0.00026 | – | 0.000463 ± 0.00012 | 0.000133 ± 1.6e-05
19 | G40U U55A | 0.00366 ± 0.0016 | – | 0.000764 ± 0.00022 | 0.00204 ± 0.00041 | 0.00304 ± 0.00059 | 0.000217 ± 5.8e-05 | 0.00026 ± 5.9e-05
20 | G41A A48U | 4.08e-05 ± 6.1e-06 | – | – | 3.76e-05 ± 1.1e-05 | 3.63e-05 ± 1e-05 | < 1e-05 | < 1e-05
21 | G41U U56A | 0.00219 ± 0.00072 | 4700 ± 2000 | 0.000234 ± 3.5e-05 | 0.000769 ± 0.0001 | 0.00153 ± 0.00029 | 7.37e-05 ± 1.6e-05 | 3.42e-05 ± 8.2e-06
22 | G41A U45G | 0.000391 ± 0.00013 | – | 0.000144 ± 2.4e-05 | 0.000565 ± 0.0001 | 0.000304 ± 5.2e-05 | 3e-05 ± 1.3e-05 | 2.84e-05 ± 1.3e-05
23 | G41A U45A | 0.000317 ± 4.9e-05 | 140 ± 59 | 0.000296 ± 5.5e-05 | 0.000354 ± 8.1e-05 | 0.000299 ± 5.4e-05 | 0.000128 ± 3e-05 | 9.19e-05 ± 1.9e-05
24 | A42G C68A | 1.2e-05 ± 4.3e-06 | – | – | – | – | – | –
25 | G41U A48U | 5.64e-05 ± 5.9e-06 | 2530 ± 840 | – | – | 4.45e-05 ± 1.4e-05 | – | –
26 | G41C A53U | 0.000241 ± 3.2e-05 | 1290 ± 380 | 7.44e-05 ± 1.2e-05 | 0.000197 ± 3.2e-05 | 0.000201 ± 2.9e-05 | – | –
27 | G41C A53C | 0.000159 ± 1.5e-05 | 3660 ± 720 | 1.93e-05 ± 9.5e-06 | 6.77e-05 ± 9.6e-06 | 0.000115 ± 1.5e-05 | – | –
28 | A42U U55G | 0.000182 ± 1.6e-05 | 577 ± 150 | 8.8e-05 ± 1.4e-05 | 0.000164 ± 2.3e-05 | 0.000167 ± 2.3e-05 | 5.02e-05 ± 1.6e-05 | –
29 | A42U A52G | 1.76e-05 ± 2.4e-06 | – | – | – | 1.62e-05 ± 7.9e-06 | < 1e-05 | –
30 | G41A U49G | 3.79e-05 ± 6.4e-06 | – | – | 3.9e-05 ± 1e-05 | 3.34e-05 ± 8.6e-06 | – | –
31 | A42U U45A | 0.000149 ± 2.4e-05 | 1500 ± 680 | 3.93e-05 ± 1e-05 | 0.000134 ± 2.6e-05 | 0.000123 ± 1.6e-05 | – | –
32 | A42U U45G | 0.00034 ± 6.6e-05 | 1880 ± 720 | 7.31e-05 ± 1.5e-05 | 0.000225 ± 3.8e-05 | 0.000278 ± 4.1e-05 | 4.68e-05 ± 1.4e-05 | –
33 | A42U C67U | 0.000151 ± 1.3e-05 | 1090 ± 300 | 5.2e-05 ± 6.3e-06 | 0.000127 ± 1.2e-05 | 0.000131 ± 8.5e-06 | – | –
